Tests used:
SEC = molecular target: the molecule itself; assay: SEC
UbcH5B = UbcH5B (UniProt P62837 1-147); assay: SPR
[1] = molecular target: UbcH5BS~Ub (UbcH5B C85S covalently ester-linked to the C-terminus of ubiquitin) (UniProt P62837;P0CG48, C85S); assay: SPR
UbcH5BS D117A~Ub = UbcH5BS D117A~Ub (UniProt P62837;P0CG48, C85S | D117A); assay: SPR

Binder | Kd [1] | stoichiometry N (SEC) | also measured
BIRC7 I284A (as in size exclusion chromatography and ubiquitination assays) (enzyme) MGPKDSAKCLHRGPQPSHWAAGDGPTQERCGPRSLGSPVLGLDTCRAWDHVDGQILGQLRPLTEEEEEEGAGATLSRGPAFPGMGSEELRLASFYDWPLTAEVPPELLAAAGFFHTGHQDKVRCFFCYGGLQSWKRGDDPWTEHAKWFPSCQFLLRSKGRDFVHSVQETHSQLLGSWDPWEEPEDAAPVAPSVPASGYPELPTPRREVQSESAQEPGGVSPAEAQRAWWVLEPPGARDVEAQLRRLQEERTCKVCLDRAVSIVFVPCGHLVCAECAPGLQLCPACRAPVRSRVRTFLS |  | 2 | 
BIRC7 F296H (as in size exclusion chromatography and ubiquitination assays) (enzyme) MGPKDSAKCLHRGPQPSHWAAGDGPTQERCGPRSLGSPVLGLDTCRAWDHVDGQILGQLRPLTEEEEEEGAGATLSRGPAFPGMGSEELRLASFYDWPLTAEVPPELLAAAGFFHTGHQDKVRCFFCYGGLQSWKRGDDPWTEHAKWFPSCQFLLRSKGRDFVHSVQETHSQLLGSWDPWEEPEDAAPVAPSVPASGYPELPTPRREVQSESAQEPGGVSPAEAQRAWWVLEPPGARDVEAQLRRLQEERTCKVCLDRAVSIVFVPCGHLVCAECAPGLQLCPICRAPVRSRVRTHLS |  | 2 | 
BIRC7 R286A (as in size exclusion chromatography and ubiquitination assays) (enzyme) MGPKDSAKCLHRGPQPSHWAAGDGPTQERCGPRSLGSPVLGLDTCRAWDHVDGQILGQLRPLTEEEEEEGAGATLSRGPAFPGMGSEELRLASFYDWPLTAEVPPELLAAAGFFHTGHQDKVRCFFCYGGLQSWKRGDDPWTEHAKWFPSCQFLLRSKGRDFVHSVQETHSQLLGSWDPWEEPEDAAPVAPSVPASGYPELPTPRREVQSESAQEPGGVSPAEAQRAWWVLEPPGARDVEAQLRRLQEERTCKVCLDRAVSIVFVPCGHLVCAECAPGLQLCPICAAPVRSRVRTFLS |  | 2 | 
RNF2(1–114)–BMI1(1–109) (complex) chain 1: MSQAVQTNGTQPLSKTWELSLYELQRTPQEAITDGLEIVVSPRSLHSELMCPICLDMLKNTMTTKECLHRFCADCIITALRSGNKECPTCRKKLVSKRSLRPDPNFDALISKIY chain 2: MHRTTRIKITELNPHLMCVLCGGYFIDATTIIECLHSFCKTCIVRYLETSKYCPICDVQVHKTRPLLNIRSDKTLQDIVYKLVPGLFKNEMKRRRDFYAAHPSADAANG |  |  | Kd (UbcH5B): 91 µM

Second part, led by results:

Kd [1] | Binder | stoichiometry N (SEC) | also measured
5 µM | GST-BIRC3(541–C) (domain or fragment) DLPVEEQLRRLQEERTCKVCMDKEVSIVFIPCGHLVVCKDCAPSLRKCPICRSTIKGTVRTFLS |  | 
181 µM | GST-BIRC7 full length (enzyme) MGPKDSAKCLHRGPQPSHWAAGDGPTQERCGPRSLGSPVLGLDTCRAWDHVDGQILGQLRPLTEEEEEEGAGATLSRGPAFPGMGSEELRLASFYDWPLTAEVPPELLAAAGFFHTGHQDKVRCFFCYGGLQSWKRGDDPWTEHAKWFPSCQFLLRSKGRDFVHSVQETHSQLLGSWDPWEEPEDAAPVAPSVPASGYPELPTPRREVQSESAQEPGGVSPAEAQRAWWVLEPPGARDVEAQLRRLQEERTCKVCLDRAVSIVFVPCGHLVCAECAPGLQLCPICRAPVRSRVRTFLS |  | Kd (UbcH5BS D117A~Ub): 191 µM
130 µM | MDM2(428–C)–MDMX(428–C) (complex) chain 1: SSLPLNAIEPCVICQGRPKNGCIVHGKTGHLMACFTCAKKLKKRNKPCPVCRQPIQMIVLTYFP chain 2: EDCQNLLKPCSLCEKRPRDGNIIHGRTGHLVTCFHCARRLKKAGASCPICKKEIQLVIKVFIA |  | 
136 µM | GST-BIRC7(239–C) (domain or fragment) VEAQLRRLQEERTCKVCLDRAVSIVFVPCGHLVCAECAPGLQLCPICRAPVRSRVRTFLS |  | 

— paper PMC3880866 (Nature structural & molecular biology, 2012)
